Measured values reported in IntAct's records for PubMed 23463101.

B1: Trinucleotide repeat-containing gene 6C protein (Homo sapiens), Q9HCJ0-1 (parent)
chain: MATGSAQGNFTGHTKKTNGNNGTNGALVQSPSNQSALGAGGANSNGSAARVWGVATGSSSGLAHCSVSGGDGKMDTMIGDGRSQNCWGASNSNAGINLNLNPNANPAAWPVLGHEGTVATGNPSSICSPVSAIGQNMGNQNGNPTGTLGAWGNLLPQESTEPQTSTSQNVSFSAQPQNLNTDGPNNTNPMNSSPNPINAMQTNGLPNWGMAVGMGAIIPPHLQGLPGANGSSVSQVSGGSAEGISNSVWGLSPGNPATGNSNSGFSQGNGDTVNSALSAKQNGSSSAVQKEGSGGNAWDSGPPAGPGILAWGRGSGNNGVGNIHSGAWGHPSRSTSNGVNGEWGKPPNQHSNSDINGKGSTGWESPSVTSQNPTVQPGGEHMNSWAKAASSGTTASEGSSDGSGNHNEGSTGREGTGEGRRRDKGIIDQGHIQLPRNDLDPRVLSNTGWGQTPVKQNTAWEFEESPRSERKNDNGTEAWGCAATQASNSGGKNDGSIMNSTNTSSVSGWVNAPPAAVPANTGWGDSNNKAPSGPGVWGDSISSTAVSTAAAAKSGHAWSGAANQEDKSPTWGEPPKPKSQHWGDGQRSNPAWSAGGGDWADSSSVLGHLGDGKKNGSGWDADSNRSGSGWNDTTRSGNSGWGNSTNTKANPGTNWGETLKPGPQQNWASKPQDNNVSNWGGAASVKQTGTGWIGGPVPVKQKDSSEATGWEEPSPPSIRRKMEIDDGTSAWGDPSNYNNKTVNMWDRNNPVIQSSTTTNTTTTTTTTTSNTTHRVETPPPHQAGTQLNRSPLLGPGRKVSSGWGEMPNVHSKTENSWGEPSSPSTLVDNGTAAWGKPPSSGSGWGDHPAEPPVAFGRAGAPVAASALCKPASKSMQEGWGSGGDEMNLSTSQWEDEEGDVWNNAASQESTSSCSSWGNAPKKGLQKGMKTSGKQDEAWIMSRLIKQLTDMGFPREPAEEALKSNNMNLDQAMSALLEKKVDVDKRGLGVTDHNGMAAKPLGCRPPISKESSVDRPTFLDKDGGLVEEPTPSPFLPSPSLKLPLSHSALPSQALGGIASGLGMQNLNSSRQIPSGNLGMFGNSGAAQARTMQQPPQPPVQPLNSSQPSLRAQVPQFLSPQVQAQLLQFAAKNIGLNPALLTSPINPQHMTMLNQLYQLQLAYQRLQIQQQMLQAQRNVSGSMRQQEQQVARTITNLQQQIQQHQRQLAQALLVKQPPPPPPPPHLSLHPSAGKSAMDSFPSHPQTPGLPDLQTKEQQSSPNTFAPYPLAGLNPNMNVNSMDMTGGLSVKDPSQSQSRLPQWTHPNSMDNLPSAASPLEQNPSKHGAIPGGLSIGPPGKSSIDDSYGRYDLIQNSESPASPPVAVPHSWSRAKSDSDKISNGSSINWPPEFHPGVPWKGLQNIDPENDPDVTPGSVPTGPTINTTIQDVNRYLLKSGGKLSDIKSTWSSGPTSHTQASLSHELWKVPRNSTAPTRPPPGLTNPKPSSTWGASPLGWTSSYSSGSAWSTDTSGRTSSWLVLRNLTPQIDGSTLRTLCLQHGPLITFHLNLTQGNAVVRYSSKEEAAKAQKSLHMCVLGNTTILAEFAGEEEVNRFLAQGQALPPTSSWQSSSASSQPRLSAAGSSHGLVRSDAGHWNAPCLGGKGSSELLWGGVPQYSSSLWGPPSADDSRVIGSPTPLTTLLPGDLLSGESL

Experiments:
[1] = variants of: B1; details: with pabp_drome pAbp
[2] = variants of: B1; details: with cnot1_human CNOT1, A5YKK6
Chain of cnot1_human CNOT1, A5YKK6 (A5YKK6 whole entry): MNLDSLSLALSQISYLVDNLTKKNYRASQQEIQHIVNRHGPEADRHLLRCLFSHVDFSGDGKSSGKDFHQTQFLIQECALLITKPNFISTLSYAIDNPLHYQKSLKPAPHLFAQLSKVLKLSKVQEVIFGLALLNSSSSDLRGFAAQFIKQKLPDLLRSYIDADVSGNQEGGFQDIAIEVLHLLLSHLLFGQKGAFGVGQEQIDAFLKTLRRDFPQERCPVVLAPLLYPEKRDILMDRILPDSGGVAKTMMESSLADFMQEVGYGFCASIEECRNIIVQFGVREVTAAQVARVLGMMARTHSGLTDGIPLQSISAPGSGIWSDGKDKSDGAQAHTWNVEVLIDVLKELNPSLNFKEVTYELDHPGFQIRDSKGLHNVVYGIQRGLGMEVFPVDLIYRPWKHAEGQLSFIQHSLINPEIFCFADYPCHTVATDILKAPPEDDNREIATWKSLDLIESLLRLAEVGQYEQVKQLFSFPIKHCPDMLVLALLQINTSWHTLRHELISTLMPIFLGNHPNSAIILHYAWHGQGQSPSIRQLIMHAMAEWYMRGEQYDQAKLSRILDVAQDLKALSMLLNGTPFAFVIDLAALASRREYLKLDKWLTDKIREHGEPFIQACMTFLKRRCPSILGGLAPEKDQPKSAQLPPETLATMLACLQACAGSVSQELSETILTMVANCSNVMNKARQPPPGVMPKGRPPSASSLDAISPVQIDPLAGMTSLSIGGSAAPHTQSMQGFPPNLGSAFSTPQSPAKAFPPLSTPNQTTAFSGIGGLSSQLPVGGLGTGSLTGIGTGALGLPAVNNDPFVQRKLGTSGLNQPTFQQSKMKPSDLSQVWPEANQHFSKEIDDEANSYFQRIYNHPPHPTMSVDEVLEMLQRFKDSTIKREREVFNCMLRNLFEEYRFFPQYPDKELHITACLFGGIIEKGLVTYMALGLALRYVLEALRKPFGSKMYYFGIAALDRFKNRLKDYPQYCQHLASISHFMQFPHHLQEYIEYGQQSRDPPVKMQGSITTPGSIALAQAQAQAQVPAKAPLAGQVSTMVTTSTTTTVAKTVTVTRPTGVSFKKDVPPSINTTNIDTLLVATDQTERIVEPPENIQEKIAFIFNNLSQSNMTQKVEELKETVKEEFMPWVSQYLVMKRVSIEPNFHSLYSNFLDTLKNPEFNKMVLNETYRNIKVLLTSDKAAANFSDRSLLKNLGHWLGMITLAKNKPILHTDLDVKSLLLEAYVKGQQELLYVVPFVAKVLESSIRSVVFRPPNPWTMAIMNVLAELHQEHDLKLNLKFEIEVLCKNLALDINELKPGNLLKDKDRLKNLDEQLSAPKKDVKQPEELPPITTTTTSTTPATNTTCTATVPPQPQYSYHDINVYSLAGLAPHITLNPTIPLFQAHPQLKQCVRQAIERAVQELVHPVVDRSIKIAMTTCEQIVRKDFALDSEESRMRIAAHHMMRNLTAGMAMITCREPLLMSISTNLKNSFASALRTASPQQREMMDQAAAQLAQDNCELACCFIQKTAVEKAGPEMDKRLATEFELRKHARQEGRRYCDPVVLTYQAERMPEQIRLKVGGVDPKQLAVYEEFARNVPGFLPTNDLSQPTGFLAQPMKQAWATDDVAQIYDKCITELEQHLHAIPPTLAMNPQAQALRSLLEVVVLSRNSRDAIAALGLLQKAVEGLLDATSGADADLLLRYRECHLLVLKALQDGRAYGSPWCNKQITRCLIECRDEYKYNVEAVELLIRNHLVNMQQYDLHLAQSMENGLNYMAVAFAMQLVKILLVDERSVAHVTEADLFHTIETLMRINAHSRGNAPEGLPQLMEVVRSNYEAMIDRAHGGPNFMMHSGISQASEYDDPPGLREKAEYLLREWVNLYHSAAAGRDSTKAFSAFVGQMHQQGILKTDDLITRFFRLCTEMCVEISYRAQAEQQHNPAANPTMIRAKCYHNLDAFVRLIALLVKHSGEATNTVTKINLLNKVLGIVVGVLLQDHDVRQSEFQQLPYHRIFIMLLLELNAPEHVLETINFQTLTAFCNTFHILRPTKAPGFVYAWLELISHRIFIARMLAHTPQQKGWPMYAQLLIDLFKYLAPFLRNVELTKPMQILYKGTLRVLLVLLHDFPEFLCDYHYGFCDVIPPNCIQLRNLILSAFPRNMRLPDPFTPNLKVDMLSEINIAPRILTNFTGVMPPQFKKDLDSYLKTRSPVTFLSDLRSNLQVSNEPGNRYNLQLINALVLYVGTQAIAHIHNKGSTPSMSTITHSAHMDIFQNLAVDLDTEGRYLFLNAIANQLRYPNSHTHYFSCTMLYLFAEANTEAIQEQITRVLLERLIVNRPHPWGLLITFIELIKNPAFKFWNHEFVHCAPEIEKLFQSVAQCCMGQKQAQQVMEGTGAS

[3] = variants of: B1; details: with pabp_drome pAbp; remark: listed apart in the source
[4] = variants of: B1; details: with pabp_drome pAbp; remark: listed apart in the source

Row | Variant | effect of a mutation on the interaction [1] | effect of a mutation on the interaction [2] | effect of a mutation on the interaction [3] | effect of a mutation on the interaction [4]
1 | F1389A | disrupting interaction | – | – | –
2 | Q1294A;S1295A;R1296A;L1297A;Q1299A;W1300A | – | disrupting interaction | decreasing interaction | decreasing interaction
